Results reported in US20260049134A1 (UNIVERSITY OF FLORIDA RESEARCH FOUNDATION, published 2026).
Residue numbers refer to the chain shown, from its start. Numbers in names are those of the source.

T1: IL13RA1
T1 construct: also called IL13RA1-Fc-His (R&D Systems)
T1 chain: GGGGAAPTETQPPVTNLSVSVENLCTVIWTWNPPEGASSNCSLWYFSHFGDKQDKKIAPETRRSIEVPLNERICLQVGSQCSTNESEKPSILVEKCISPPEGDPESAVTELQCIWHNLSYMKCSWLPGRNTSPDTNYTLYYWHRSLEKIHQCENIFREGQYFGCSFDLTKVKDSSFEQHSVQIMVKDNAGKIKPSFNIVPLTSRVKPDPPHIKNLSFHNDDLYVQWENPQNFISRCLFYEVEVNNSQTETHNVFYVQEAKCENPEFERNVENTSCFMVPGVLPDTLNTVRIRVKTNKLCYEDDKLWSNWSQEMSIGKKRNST

T2: SLAMF7
T2 construct: also called SLAMF7-StrepTag; not shown: StrepTag and any linker
T2 chain: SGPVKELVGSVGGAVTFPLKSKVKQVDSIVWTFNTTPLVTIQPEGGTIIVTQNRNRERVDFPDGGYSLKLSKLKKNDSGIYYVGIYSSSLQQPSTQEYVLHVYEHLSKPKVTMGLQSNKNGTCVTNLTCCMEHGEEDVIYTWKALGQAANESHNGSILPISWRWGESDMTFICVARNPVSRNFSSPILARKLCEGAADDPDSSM

T3: DCC
T3 construct: also called DCC-His (R&D Systems)
T3 chain: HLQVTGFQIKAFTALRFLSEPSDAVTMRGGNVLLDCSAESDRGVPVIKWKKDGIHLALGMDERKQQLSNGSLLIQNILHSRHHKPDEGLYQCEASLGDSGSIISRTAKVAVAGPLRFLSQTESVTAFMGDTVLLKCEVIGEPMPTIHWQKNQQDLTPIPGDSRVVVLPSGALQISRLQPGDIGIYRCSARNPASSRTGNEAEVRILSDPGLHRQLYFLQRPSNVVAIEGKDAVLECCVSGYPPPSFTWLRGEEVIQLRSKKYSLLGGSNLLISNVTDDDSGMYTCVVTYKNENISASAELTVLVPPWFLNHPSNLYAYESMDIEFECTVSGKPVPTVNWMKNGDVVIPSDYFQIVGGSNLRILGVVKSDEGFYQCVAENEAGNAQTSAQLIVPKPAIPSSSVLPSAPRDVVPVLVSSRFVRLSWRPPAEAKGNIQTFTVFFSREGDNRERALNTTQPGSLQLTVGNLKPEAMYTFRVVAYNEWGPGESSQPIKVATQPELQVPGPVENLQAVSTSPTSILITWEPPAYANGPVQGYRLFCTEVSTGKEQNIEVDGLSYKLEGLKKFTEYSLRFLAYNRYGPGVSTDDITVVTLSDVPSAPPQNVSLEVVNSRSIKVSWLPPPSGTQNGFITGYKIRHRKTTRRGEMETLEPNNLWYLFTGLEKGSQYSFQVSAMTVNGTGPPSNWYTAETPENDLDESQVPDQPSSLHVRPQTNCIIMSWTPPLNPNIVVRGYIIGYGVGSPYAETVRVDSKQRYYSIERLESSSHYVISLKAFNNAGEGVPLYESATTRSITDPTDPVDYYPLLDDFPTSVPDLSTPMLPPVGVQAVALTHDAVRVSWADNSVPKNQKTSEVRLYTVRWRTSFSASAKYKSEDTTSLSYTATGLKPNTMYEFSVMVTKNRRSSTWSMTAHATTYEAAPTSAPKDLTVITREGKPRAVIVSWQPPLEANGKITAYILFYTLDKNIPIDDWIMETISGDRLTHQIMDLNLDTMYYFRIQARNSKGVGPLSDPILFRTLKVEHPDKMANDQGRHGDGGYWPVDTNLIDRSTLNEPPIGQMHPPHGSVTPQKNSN

T4: ANXA1
T4 construct: also called ANXA1-His (R&D Systems); not shown: His tag
T4 chain: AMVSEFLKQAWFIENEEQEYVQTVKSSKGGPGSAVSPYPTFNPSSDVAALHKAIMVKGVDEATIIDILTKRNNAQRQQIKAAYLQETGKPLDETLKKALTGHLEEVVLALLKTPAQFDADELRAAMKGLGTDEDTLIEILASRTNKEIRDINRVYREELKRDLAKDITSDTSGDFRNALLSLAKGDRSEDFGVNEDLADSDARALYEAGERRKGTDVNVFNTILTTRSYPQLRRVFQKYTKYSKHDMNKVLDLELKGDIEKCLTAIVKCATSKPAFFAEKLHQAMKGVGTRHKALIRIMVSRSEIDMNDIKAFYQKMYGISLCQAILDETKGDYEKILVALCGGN

T5: IGSF11
T5 construct: also called IGSF11-Fc (R&D Systems)
T5 chain: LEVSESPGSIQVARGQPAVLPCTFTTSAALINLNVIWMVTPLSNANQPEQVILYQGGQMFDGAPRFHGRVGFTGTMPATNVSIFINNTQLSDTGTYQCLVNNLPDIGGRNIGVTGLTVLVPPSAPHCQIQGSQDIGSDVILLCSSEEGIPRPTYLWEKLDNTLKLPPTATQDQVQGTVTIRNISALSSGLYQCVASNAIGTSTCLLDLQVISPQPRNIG

B1: TH9-0022 (antibody, human IgG1, kappa, L234A L235A, V domains shown)
VH: QSLEESGGRLVTPGTPLTLTCTVSGFSLSSYAMNWVRQAPGKGLEWIGIINSYGSTYYASWAKGRFTISKTSTTVDLKITSPTTEDTATYFCARVTYDSYGYGYAPYGMDLWGPGTLVTVSS
VL: LVMTQTPSSTSNAVGGTVTIKCQASQSIGNVLAWYQQKPGQPPKLLIYAASTLASGVPSRVGGSRSGTEYTLTISGVQREDAATYYCLGSDSDSDIAFGGGTELEILR
notes: also called TH9-022; negative control IgG1
B2: HW-1 chimeric rabbit-human IgG1 LA/LA/PG (antibody, V domains shown)
VH: QSLEESGGGLFKPTDTLTLTCTASGFSLGSSYAISWVRQAPGKELEWIGTIDSGRAYYARWAKSRSTITRNTNENTVTLKMTSLTAADTATYFCARDLIPTYSQDIWGPGTLVTISS
VL: SFVLTQPASVQVNLGQTVSLTCTADTLSRRYASWYQQKPGQAPVLLIYRDTSRPSGVPDRFSGSSSGNTATLTISGAQAGDEADYYCATSDGSGNSYQYVFGGGTQLTVTS
notes: Fc-silenced (L234A/L235A/P329G) IgG1, lambda; Alexa Fluor 647-labeled in single-step flow cytometry; Prototype of cluster C-1
B3: HW-97 chimeric rabbit-human IgG1 LA/LA/PG (antibody, V domains shown)
VH: QKQLVESGGRLVTPGTPLTLTCTVTGIDLSSHGMSWVRQAPGKGLEWIGVIYPSGSTWYASWARGRFTISKTSTTVDLKMTSLTTEDTATHFCARGDVGGADNNIWGPGTLVTVSS
VL: B2 VL with N13D, D25E, R30S, N95S, S111G
notes: Fc-silenced (L234A/L235A/P329G) IgG1, lambda; Alexa Fluor 647-labeled in single-step flow cytometry; Prototype of cluster C-97
B4: HW-17 chimeric rabbit-human IgG1 LA/LA/PG (antibody, V domains shown)
VH: QSLGESRGRLVTPDETLTLTCTVSGIDLSSNAMSWVRQAPGEGLEWIGTINTGGRAYYASWAKGRFTISRTSTTVDLKMTSLTTEDTATYFCARERYSDGRAYDIWGPGTLVTISS
VL: B2 VL with R49T, T51S, S52N, V57I, S90D, N95S, S96I, S111G
notes: Fc-silenced (L234A/L235A/P329G) IgG1, lambda; Alexa Fluor 647-labeled in single-step flow cytometry; Cluster C-1
B5: HW-101 chimeric rabbit-human IgG1 LA/LA/PG (antibody, V domains shown)
VH: QEQLVESGGRLVTPGTPLTLTCKASGFSLGKYDMSWVRQAPGKGLEWIGTIYAGSGSTWYASWAKGRFTISKTSTTVDLKMTSLTTEDTATYFCARDFLGVNSIWGPGTLVTISS
VL: B2 VL with R30S, G40D, Y48H, S65N, N95S, S96N, Y97F, Q98H, Y99F, S111G
notes: Fc-silenced (L234A/L235A/P329G) IgG1, lambda; Alexa Fluor 647-labeled in single-step flow cytometry; Cluster C-97
B6: HW-8 chimeric rabbit-human IgG1 LA/LA/PG (antibody, V domains shown)
VH: QSLEESGGRLVTPGTPLTLTCTVSGFSLSSYAMSWVRQAPGKGLEWIGAISTGGSTTYASWAKGRFTISKTSSTTVDLKMTSLTTEDTATYFCVRHFRLWGPGTLVTISS
VL: QVLTQTPSSVSAAVGGTVTIKCQASQSIGSALAWFQQKPGQRPKLLIYRASNLASGVPSRFKGSGSGTEFALTISGVQREDAATYYCLGGAAAVWAFGAGTNVEIKR
notes: Fc-silenced (L234A/L235A/P329G) IgG1, kappa; Alexa Fluor 647-labeled in single-step flow cytometry; Cluster C-45

Target: T1, IL13RA1
Experiment: ELISA on coated protein
Description: (§1) Recombinant purified ECDs (50-150 ng) of each putative target protein were coated, incubated with 150 ng of the indicated primary antibody, and binding was detected using a peroxidase-conjugated anti-human Fab secondary antibody. Heatmap represents averages of technical triplicates. (8B) Target validation via siRNA knockdown. H929 cells were transfected with siRNA pools targeting the putative antibody targets ICAM1, CADM1, and PTPRG. Cells were then subjected to cognate IgG binding analysis via flow cytometry. (NT, non-targeting siRNA).
(§2) ELISA ELISA was conducted as described previously. Briefly, 50-150 ng of antigen was coated overnight in half-area 96-well plates at 4° C., blocked with 3% BSA at 37° C. for 1 h, and 150 ng of chimeric rabbit/human IgG1 was added, incubating for 2 h at 37° C. […] After incubating at 37° C. for 15 min-1 h (depending on intensity of controls), data were acquired using a SpectraMax M5 plate reader (Molecular Devices).

Binder | binding result
B1 | no binding (tested: 150 ng IgG1 per well)
B2 | no binding (tested: 150 ng IgG1 per well)
B3 | no binding (tested: 150 ng IgG1 per well)
B4 | no binding (tested: 150 ng IgG1 per well)
B5 | no binding (tested: 150 ng IgG1 per well)
B6 | no binding (tested: 150 ng IgG1 per well)

Target: T2, SLAMF7
Experiment: ELISA on coated protein
Description: as §1, §2

Binder | binding result
B1 | no binding (tested: 150 ng IgG1 per well)
B2 | no binding (tested: 150 ng IgG1 per well)
B3 | no binding (tested: 150 ng IgG1 per well)
B4 | no binding (tested: 150 ng IgG1 per well)
B5 | no binding (tested: 150 ng IgG1 per well)
B6 | no binding (tested: 150 ng IgG1 per well)

Target: T3, DCC
Experiment: ELISA on coated protein
Description: as §1, §2

Binder | binding result
B1 | no binding (tested: 150 ng IgG1 per well)
B2 | no binding (tested: 150 ng IgG1 per well)
B3 | no binding (tested: 150 ng IgG1 per well)
B4 | no binding (tested: 150 ng IgG1 per well)
B5 | no binding (tested: 150 ng IgG1 per well)
B6 | no binding (tested: 150 ng IgG1 per well)

Target: T4, ANXA1
Experiment: ELISA on coated protein
Description: as §1, §2

Binder | binding result
B1 | no binding (tested: 150 ng IgG1 per well)
B2 | no binding (tested: 150 ng IgG1 per well)
B3 | no binding (tested: 150 ng IgG1 per well)
B4 | no binding (tested: 150 ng IgG1 per well)
B5 | no binding (tested: 150 ng IgG1 per well)
B6 | no binding (tested: 150 ng IgG1 per well)

Target: T5, IGSF11
Experiment: ELISA on coated protein
Description: as §1, §2

Binder | binding result
B1 | no binding (tested: 150 ng IgG1 per well)
B2 | no binding (tested: 150 ng IgG1 per well)
B3 | no binding (tested: 150 ng IgG1 per well)
B4 | no binding (tested: 150 ng IgG1 per well)
B5 | no binding (tested: 150 ng IgG1 per well)
B6 | no binding (tested: 150 ng IgG1 per well)

Target: T6, PTP4A3
T6 construct: also called His-PTP4A3 (R&D Systems)
T6 sequence (chain, as listed by the source limits assumed): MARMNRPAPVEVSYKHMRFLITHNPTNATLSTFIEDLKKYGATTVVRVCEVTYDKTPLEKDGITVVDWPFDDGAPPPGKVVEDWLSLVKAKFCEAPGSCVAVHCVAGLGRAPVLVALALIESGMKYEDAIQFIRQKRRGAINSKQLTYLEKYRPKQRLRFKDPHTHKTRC
Experiment: ELISA on coated protein
Description: as §1, §2

Binder | binding result
B1 | no binding (tested: 150 ng IgG1 per well)
B2 | no binding (tested: 150 ng IgG1 per well)
B3 | no binding (tested: 150 ng IgG1 per well)
B4 | no binding (tested: 150 ng IgG1 per well)
B5 | no binding (tested: 150 ng IgG1 per well)
B6 | no binding (tested: 150 ng IgG1 per well)

Target: T7, ICAM1-Fc (R&D Systems) (human, UniProt P05362 28-480)
T7 construct: Bought; also called ICAM-1/CD54; not shown: Fc of the bought fusion protein
T7 sequence (P05362 28-480): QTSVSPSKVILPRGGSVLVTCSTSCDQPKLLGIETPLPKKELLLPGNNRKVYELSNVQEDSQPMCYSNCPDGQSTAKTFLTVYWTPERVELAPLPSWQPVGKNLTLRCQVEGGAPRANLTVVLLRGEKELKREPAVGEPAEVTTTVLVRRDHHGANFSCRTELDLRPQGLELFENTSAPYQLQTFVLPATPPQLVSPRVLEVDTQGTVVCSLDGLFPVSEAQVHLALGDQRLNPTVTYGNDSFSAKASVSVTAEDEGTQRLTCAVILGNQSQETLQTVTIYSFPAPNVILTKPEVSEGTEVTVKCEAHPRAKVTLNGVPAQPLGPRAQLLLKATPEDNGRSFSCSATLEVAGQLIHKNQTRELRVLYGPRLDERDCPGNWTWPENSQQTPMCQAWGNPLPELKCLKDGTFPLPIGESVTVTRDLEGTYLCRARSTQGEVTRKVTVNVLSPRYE
Experiment: ELISA on coated protein
Description: as §1, §2

Binder | binding result
B1 | no binding (tested: 150 ng IgG1 per well)
B2 | no binding (tested: 150 ng IgG1 per well)
B3 | no binding (tested: 150 ng IgG1 per well)
B4 | no binding (tested: 150 ng IgG1 per well)
B5 | no binding (tested: 150 ng IgG1 per well)
B6 | no binding (tested: 150 ng IgG1 per well)
